From patent publication US20240197877A1 (published 2024)

T1: MYO1G (HA-2 SNP; MYO1G(M) variant) peptide on HLA-A*02:01 (human)
T1 peptide: YIGEVLVSM


Target: T1, MYO1G (HA-2 SNP; MYO1G(M) variant) …
Experiment: multimer staining

Row | Binder | binding result
1 | HA2-MJ13-SP43 (TCR, V domains shown) Valpha: QKEVEQNSGPLSVPEGAIASLNCTYSDRGSQSFFWYRQYSGKSPELIMFIYSNGDKEDGRFTAQLNKASQYVSLLIRDSQPSDSATYLCAVKGAGYSTLTFGKGTMLLVSP Vbeta: NAGVTQTPKFQVLKTGQSMTLQCAQDMNHEYMSWYRQDPGMGLRLIHYSVGAGITDQGEVPNGYNVSRSTTEDFPLRLLSAAPSQTSVYFCASSDGGALAYFGPGTRLTVL | no recognition
2 | HA2-MJ14-SP4 (TCR, V domains shown) Valpha: QKEVEQNSGPLSVPEGAIASLNCTYSDRGSQSFFWYRQYSGKSPELIMFIYSNGDKEDGRFTAQLNKASQYVSLLIRDSQPSDSATYLCAVRRSGYSTLTFGKGTMLLVSP Vbeta: NAGVTQTPKFQVLKTGQSMTLQCAQDMNHEYMSWYRQDPGMGLRLIHYSVGAGITDQGEVPNGYNVSRSTTEDFPLRLLSAAPSQTSVYFCASSLGAEAFFGQGTRLTVV | no recognition
